Our source for the Kd values is paper PMC3421062.

Assay [1] has as its target NAC1-V5 recombinant protein (UniProt Q96RE7). The assay is described as follows: pull-down.
The target in assay [2] is N130-V5 recombinant protein (NAC1 BTB domain only) (UniProt Q96RE7). The assay is described as follows: pull-down.

On to “purified recombinant actin (Cytoskeleton Inc.) (from UniProt P60709 1-375) (natural protein)”, for which the Kd came to 780 nM in assay [1] and 520 nM in assay [2].

For orientation: Kd means the free concentration of one partner at which half of the binding sites on the other are occupied at equilibrium, for simple one-to-one binding.
